Assay results reported in patent US20210238279A1 (Johns Hopkins, published 2021).
Numbering of substitutions follows the chain as printed.

T1: human ZnT8 over-expressed in HEK293 cells (human, UniProt Q8IWU4 1-369)
T1 construct: whole, on cells; Cells were fixed and permeabilized for immunofluorescence and flow cytometry (intracellular staining); The same id is used for the detergent lysates of over-expressing cells in the HTRF assay; also called ZnT8(+) HEK293 cells; HEK293 cells stably expressing human ZnT8
T1 sequence (looked up): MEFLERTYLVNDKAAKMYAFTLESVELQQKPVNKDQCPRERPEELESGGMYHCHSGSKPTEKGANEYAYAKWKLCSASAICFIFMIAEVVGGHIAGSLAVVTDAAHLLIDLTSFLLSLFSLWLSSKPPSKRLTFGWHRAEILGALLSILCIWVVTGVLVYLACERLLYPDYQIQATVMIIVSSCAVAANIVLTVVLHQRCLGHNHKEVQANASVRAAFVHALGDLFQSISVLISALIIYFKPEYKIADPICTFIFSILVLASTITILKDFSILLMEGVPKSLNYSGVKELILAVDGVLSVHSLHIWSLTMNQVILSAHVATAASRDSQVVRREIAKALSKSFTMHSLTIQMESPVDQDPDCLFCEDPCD

T2: mouse ZnT8-His (mouse, UniProt Q8BGG0 1-367, limits assumed)
T2 construct: Over-expressed in HEK293 cells, solubilized with DDM and immobilized on Ni-NTA plates, or SDS-denatured on immunoblots; not shown: C-terminal poly-histidine tag
T2 sequence (looked up): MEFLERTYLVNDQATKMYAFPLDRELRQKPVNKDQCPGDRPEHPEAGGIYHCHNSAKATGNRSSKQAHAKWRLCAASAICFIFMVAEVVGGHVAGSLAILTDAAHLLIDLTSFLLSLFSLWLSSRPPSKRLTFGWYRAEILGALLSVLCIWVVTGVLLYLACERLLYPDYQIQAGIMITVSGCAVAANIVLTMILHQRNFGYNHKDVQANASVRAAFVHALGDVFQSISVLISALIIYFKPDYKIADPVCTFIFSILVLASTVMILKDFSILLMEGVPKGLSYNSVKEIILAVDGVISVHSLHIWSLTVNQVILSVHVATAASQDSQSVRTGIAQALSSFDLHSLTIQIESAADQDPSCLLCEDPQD

B1: mAb20 (antibody, V domains shown)
VH: QIQLVQSGPELKKPGETVKISCKASGYIFTNYPMHWVKQAPGKGLKWMGWINTYSGVPTHADDFKGRFAFSLETSANSAFLQINNLKNEDTATYFCTRSRITPTGGYAMDYWGQGTSVTVSS
VL: DVVMTQTPLSLPVSLGDQASISCRSSQSLVHSNGNTYLHWYLQKPGQSPNLLISKVSNRFSGVPERFSGSGSGTDFTLKISRVEAEDLGVYFCSQNTHVPWTFGGGTKLEIKR
notes: Mouse hybridoma mAb purified on protein A/G; In some assays it was labelled with Alexa Fluor 488 or terbium cryptate; also called monoclonal antibody mAb20; anti-ZnT8 mAb20
B2: mAb39 (antibody, V domains shown)
VH: QVQLQQPGAELVKPGASVKLSCKASGYSFTTYWMHWVKQRPGQGLEWVGDINPRNGRTNYNEKSKSKATLTVDISSSTVYMQVSSLTSEDSAVYYCAIWSGAMDYWGPGTSVTVSS
VL: B1 VL with A19P, R24K, S32N, N50K, S54Y, E65D, N96T, W101P
notes: Mouse hybridoma mAb purified on protein A/G; In some assays it was labelled with Alexa Fluor 555 or d2; also called monoclonal antibody mAb39; anti-ZnT8 mAb39

Assays:
[1] = target: T1, human ZnT8 over-expressed in HEK293 …; assay: flow cytometry, serial mAb dilutions on fixed, permeabilized HEK293 cells stably expressing human ZnT8; one-component fit
Description: FIG. 6A-6C. mAb binding affinity. (FIG. 6A) Representative confocal microscopy images of immunofluorescence staining of fixed and saponin-permeabilized HEK293 cells with mAb20 or mAb39 staining as indicated. ZnT8(+) or ZnT8(−) denotes HEK293 cells w/o ZnT8 over-expression. Red: mAb20 or mAb39 staining, blue: DAPI, scale bar: 5 um. (FIG. 6B) Histograms of flow cytometry counting events. Arrows indicate leftward shifts of the histogram as a result of mAb serial dilutions. (FIG. 6C) mAb binding to HEK293 cells w/o ZnT8 overexpression as indicated. Immunofluorescence intensities of mAb20 or mAb39 labeling in serial dilutions were obtained from (FIG. 6B). Solid lines are least-squares fits of the binding data to a one-component binding process.
Flow cytometry analysis. HEK293 cells w/o ZnT8 over-expression were fixed, permeabilized, and resuspended in PBS plus 5% BSA at a density of 1×10⁶/ml as described previously (43). Aliquots of 100 μl cell suspension were stained with mAb20 or mAb39 in 3-fold serial dilutions for 2 hours at RT, and then stained with Alexa fluor 647-conjugated donkey-anti-mouse secondary antibody in 1:1000 dilution with 5% BSA (Thermo Fisher Scientific, cat. #A31571). The labeled cells were analyzed immediately by flow cytometry. […]
Binding affinity. […] No mAb staining was detected in parental HEK293 cells without ZnT8 over-expression. […]

mouse ZnT8-His = target: T2, mouse ZnT8-His; assay: ELISA titration on ZnT8-His immobilized on Ni-NTA plate; reference is human ZnT8-His; fold ratio of mouse to human apparent affinity; Ni-NTA plate titration
Description: FIG. 7A-7D. mAb binding specificities (FIG. 7A) mAb binding to ZnT8-His immobilized to Ni-NTA plate. Bound mAb20 (red) or mAb39 (magenta) was detected by an HRP-conjugated secondary antibody. Solid lines are least-squares fits of binding datapoints to a one-component binding process. Error bars are standard errors (n=8). (FIG. 7B) SDS-denatured mouse ZnT8-His (labeled as M) and human ZnT8-His (labeled as H) on immunoblots were detected by mAb20 or mAb39 as indicated. […] (FIG. 7C) Detection of endogenous human ZnT8 in EndoC-βH cells by mAb20 or […] immunoblotting. An equal amount of EndoC-βH lysate (5 μg total protein) was loaded to each lane. (FIG. 7D) Immunoblotting of HEK lysates with or with over-expression of a ZnT homolog as indicated. An approximately equal amount of total lysate protein (5 μg) was located to each lane, probed by either mAb20, mAb39, or anti-FALG antibody as indicated. FIG. 8. HTRF response to human ZnT8, mouse ZnT8 and human ZnT3.
Binding specificities. […] Of note, the epitope-masking effect of ZnT8 immobilization weakened the apparent binding affinities of both mAbs as compared to the affinities determined by flow-cytometry, and such a weakening effect was more pronounced for mAb39, probably due to a closer proximity of the mAb39 epitope to the C-terminal His-tag. Next, we compared the immunoreactivities of mAbs to denatured ZnT8.

Row | Binder | Kd [1] | fold difference in apparent binding affinity, mouse against human ZnT8 (mouse ZnT8-His)
1 | B1 | 0.8 nM | 567 fold
2 | B2 | 0.7 nM | –
